In patent US20150086555A1:

Key:
Conditions in all cases: remark: other sources report otherwise
[1] = molecular target: recombinant homotrimeric HA A/Anhui/1/05 H5N1 (Influenza A virus A/Anhui/1/2005(H5N1)); assay: protein microarray, purified IgG, trimeric HA
[2] = molecular target: recombinant homotrimeric HA A/Hong Kong/2108/03 H9N2 (Influenza A virus A/HK/2108/2003(H9N2)); assay: protein microarray, purified IgG, trimeric HA
[3] = molecular target: recombinant homotrimeric HA A/Hong Kong/1073/99 H9N2 (Influenza A virus A/Hong Kong/1073/99 (H9N2)); assay: protein microarray, purified IgG, trimeric HA
[4] = molecular target: recombinant homotrimeric HA A/Egypt/3300-NAMRU3/08 H5N1 (Influenza A virus A/Egypt/3300-NAMRU3/2008(H5N1)); assay: protein microarray, purified IgG, trimeric HA
[5] = molecular target: recombinant homotrimeric HA A/California/4/09 H1N1 (Influenza A virus A/California/04/2009(H1N1)); assay: protein microarray, purified IgG, trimeric HA
[6] = molecular target: recombinant homotrimeric HA A/northern shoveler/California/HKWF115/07 H6N4 (Influenza A virus A/northern shoveler/California/HKWF115/2007(H6N1)); assay: protein microarray, purified IgG, trimeric HA
[7] = molecular target: recombinant homotrimeric HA A/South Carolina/1/18 H1N1 (Influenza A virus A/South Carolina/1/18 (H1N1)); assay: protein microarray, purified IgG, trimeric HA
[8] = molecular target: recombinant homotrimeric HA A/Indonesia/5/05 H5N1 (Influenza A virus A/Indonesia/5/2005(H5N1)); assay: protein microarray, purified IgG, trimeric HA
[9] = molecular target: recombinant homotrimeric HA A/Wisconsin/67/05 H3N2 (Influenza A virus A/Wisconsin/67/2005(H3N2)); assay: protein microarray, purified IgG, trimeric HA
[10] = molecular target: recombinant homotrimeric HA A/Netherlands/219/03 H7N7 (Influenza A virus A/Netherlands/219/03(H7N7)); assay: protein microarray, purified IgG, trimeric HA
[11] = molecular target: recombinant homotrimeric HA A/Vietnam/1203/04 H5N1 (Influenza A virus A/VietNam/1203/2004(H5N1)); assay: protein microarray, purified IgG, trimeric HA
[12] = molecular target: recombinant homotrimeric HA A/Hong Kong/156/97 H5N1 (Influenza A virus A/Hong Kong/156/97 (H5N1)); assay: protein microarray, purified IgG, trimeric HA
[13] = molecular target: recombinant homotrimeric HA A/chicken/Vietnam/NCVD-016/08 H5N1 (Influenza A virus A/chicken/Vietnam/NCVD-016/2008(H5N1)); assay: protein microarray, purified IgG, trimeric HA
[14] = molecular target: recombinant homotrimeric HA A/Solomon Islands/3/06 H1N1 (Influenza A virus A/Solomon Islands/3/2006(H1N1)); assay: protein microarray, purified IgG, trimeric HA
[15] = molecular target: recombinant homotrimeric HA A/Japan/305/57 H2N2 (Influenza A virus A/Japan/305/1957(H2N2)); assay: protein microarray, purified IgG, trimeric HA
[16] = molecular target: recombinant soluble homotrimeric HA of A/northern shoveler/California/HKWF115/07 (H6) (Influenza A virus A/northern shoveler/California/HKWF115/2007(H6N1)); assay: HA microarray, BCC supernatant
[17] = molecular target: recombinant soluble homotrimeric HA of A/California/4/09 (H1N1) (Influenza A virus A/California/04/2009(H1N1)); assay: HA microarray, BCC supernatant
[18] = molecular target: recombinant soluble homotrimeric HA of A/Wisconsin/67/05 (H3N2) (Influenza A virus A/Wisconsin/67/2005(H3N2)); assay: HA microarray, BCC supernatant
[19] = molecular target: recombinant soluble homotrimeric HA of A/chicken/Vietnam/NCVD-016/08 (H5N1) (Influenza A virus A/chicken/Vietnam/NCVD-016/2008(H5N1)); assay: HA microarray, BCC supernatant
[20] = molecular target: recombinant soluble homotrimeric HA of A/Netherlands/219/03 (H7N7) (Influenza A virus A/Netherlands/219/03(H7N7)); assay: HA microarray, BCC supernatant
[21] = molecular target: recombinant soluble homotrimeric HA of A/Solomon Islands/3/06 (H1N1) (Influenza A virus A/Solomon Islands/3/2006(H1N1)); assay: HA microarray, BCC supernatant
[22] = molecular target: recombinant soluble homotrimeric HA of A/Indonesia/5/05 (H5N1) (Influenza A virus A/Indonesia/5/2005(H5N1)); assay: HA microarray, BCC supernatant
[23] = molecular target: recombinant soluble homotrimeric HA of A/Anhui/1/05 (H5N1) (Influenza A virus A/Anhui/1/2005(H5N1)); assay: HA microarray, BCC supernatant
[24] = molecular target: recombinant soluble homotrimeric HA of A/duck/Yangzhou/02/05 (H8N4) (Influenza A virus A/duck/Yangzhou/02/2005(H8N4)); assay: HA microarray, BCC supernatant
[25] = molecular target: recombinant soluble homotrimeric HA of A/Japan/305/57 (H2N2) (Influenza A virus A/Japan/305/1957(H2N2)); assay: HA microarray, BCC supernatant
[26] = molecular target: recombinant soluble homotrimeric HA of A/swine/Ontario/01911-2/99 (H4N6) (Influenza A virus A/Swine/Ontario/01911-2/99 (H4N6)); assay: HA microarray, BCC supernatant
[27] = molecular target: recombinant soluble homotrimeric HA of A/Vietnam/1203/04 (H5N1) (Influenza A virus A/VietNam/1203/2004(H5N1)); assay: HA microarray, BCC supernatant
[28] = molecular target: recombinant soluble homotrimeric HA of A/Hong Kong/2108/03 (H9N2) (Influenza A virus A/HK/2108/2003(H9N2)); assay: HA microarray, BCC supernatant

B1: TCN-557 (5081_A04) (antibody, V domains shown)
VH: QVQLVQSGAEVKKPGASVKVSCKASGHTFTGYYIHWVRQAPGQGLEWMGWINPDSGATSSAQNFQGRVTMTGDTSSSTAYMELSRLSFDDTAVYYCARVLFTSPFDFWGEGTLVTVSS
VL: QAVVTQEPSLAVSPGGTVTLTCGSSTGAVTRGHYPYWFQQKPGQAPRALIYDSAGNRHSWTPARFSGSLLGGKAALTLSGAQPEDEAEYYCLLSYSGVWVFGGGTKLTVL
[1]
  Trimeric HA Binding: RLU: 22000 RLU
[2]
  Trimeric HA Binding: RLU: 7660 RLU
[3]
  Trimeric HA Binding: RLU: 440 RLU
[4]
  Trimeric HA Binding: RLU: 23600 RLU
[5]
  Trimeric HA Binding: RLU: 1170 RLU
[6]
  Trimeric HA Binding: RLU: 12600 RLU
[7]
  Trimeric HA Binding: RLU: 3590 RLU
[8]
  Trimeric HA Binding: RLU: 23300 RLU
[9]
  Trimeric HA Binding: RLU: 327 RLU
[10]
  Trimeric HA Binding: RLU: 7250 RLU
[11]
  Trimeric HA Binding: RLU: 25400 RLU
[12]
  Trimeric HA Binding: RLU: 22800 RLU
[13]
  Trimeric HA Binding: RLU: 25400 RLU
[14]
  Trimeric HA Binding: RLU: 22700 RLU
[15]
  Trimeric HA Binding: RLU: 28900 RLU
[16]
  Trimeric HA Binding: RLU: 24400 RLU
[17]
  Trimeric HA Binding: RLU: 17600 RLU
[18]
  Trimeric HA Binding: RLU: 10200 RLU
[19]
  Trimeric HA Binding: RLU: 45500 RLU
[20]
  Trimeric HA Binding: RLU: 6780 RLU
[21]
  Trimeric HA Binding: RLU: 40700 RLU
[22]
  Trimeric HA Binding: RLU: 45200 RLU
[23]
  Trimeric HA Binding: RLU: 46000 RLU
[24]
  Trimeric HA Binding: RLU: 50100 RLU
[25]
  Trimeric HA Binding: RLU: 43400 RLU
[26]
  Trimeric HA Binding: RLU: 27000 RLU
[27]
  Trimeric HA Binding: RLU: 47300 RLU
[28]
  Trimeric HA Binding: RLU: 35300 RLU
